Values of other authors in paper PMC2925223.

System: His64
Assay: not stated
Details: His64 in the inward orientation in the crystal structures

Carbonic anhydrase II (HCA II) Y7F (Homo sapiens; Y7F)
pKa: near 6.0
